Data set [1] deals with the molecule itself. As to the kind of experiment: MALDI-TOF mass spectrometry; protein at 0.4 mM desalted on a C4 ZipTip, alpha-CHCA matrix, positive linear mode, 8-190 kDa.
Data set [2] deals with the molecule itself. As to the kind of experiment: MALDI-TOF mass spectrometry; samples obtained after freezing; otherwise as the other MALDI spectra; high-order forms of low intensity.

Consider 1 protein from article PMC12732928, “The Study of Ice-Binding Protein Oligomeric Complexes” (International Journal of Molecular Sciences, 2025).

As usually defined, the stoichiometry N is the number of molecules, sites or subunits per partner or assembly.

Values joined by “and” are separate entries in the source; they are usually repeats but may differ in a detail not shown here. Equal values may be shown once.

B1: ice-binding protein P80961 from longhorn sculpin (Myoxocephalus octodecemspinosus) (natural protein)
chain: MKFSLVATIVLLALAQGSFAQGAADLESLGQYFEEMKTKLIQDMTEIIRSQDLANQAQAFVEDKKTQLQPLVAQIQEQMKTVATNVEEQIRPLTANVQAHLQPQIDNFQKQMEAIIKKLTDQTMAIEN
Turning to B1, the “stoichiometry N” value in data set [1] is 2 and 3 and 4; in data set [2] it was 5 and 6 and 7.
